Laboratory results published in paper PMC11021425, “Salmonella manipulates macrophage migration via SteC-mediated myosin light chain activation to penetrate the gut-vascular barrier” (The EMBO Journal, 2024).

Molecular target: Myl12a, biotinylated (murine) (UniProt Q6ZWQ9)
Experiment: BLI

For SteC 194 aa–364 aa (domain or fragment), the fold decrease of affinity was 10 fold.
